In patent publication US20240024475A1 (CURE GENETICS, published 2024):

T1: recombinant human CD70 protein (Acrobiosystems: CDL-H82Q9) (human, UniProt P32970 39-193)
T1 construct: Bought from Acrobiosystems; The whole natural entry is named; also called human CD70His fusion protein; recombinant human CD70 antigen having a C-terminal human IgG Fc tag
T1 sequence (looked up): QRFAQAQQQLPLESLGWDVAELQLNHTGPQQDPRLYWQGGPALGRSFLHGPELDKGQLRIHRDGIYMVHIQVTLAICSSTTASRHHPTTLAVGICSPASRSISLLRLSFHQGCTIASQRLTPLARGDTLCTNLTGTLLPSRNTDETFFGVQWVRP

B1: CD70KO-CAR-5H (receptor)
chimeric antigen receptor chain: EVQLVESGGGMVQAGGSLRLSCAAPGKIFSFYFMGWYRQAPGKQRELVALITGDGRTNYADSVEGRFTISRDNAKNTVYLQMNSLKPEDTAVYYCYADVFARAGRDEYWGQGTQVSVSSTTTPAPRPPTPAPTIASQPLSLRPEACRPAAGGAVHTRGLDFACDIYIWAPLAGTCGVLLLSLVITLYCKRGRKKLLYIFKQPFMRPVQTTQEEDGCSCRFPEEEEGGCELRVKFSRSADAPAYKQGQNQLYNELNLGRREEYDVLDKRRGRDPEMGGKPRRKNPQEGLYNELQKDKMAEAYSEIGMKGERRRGKGHDGLYQGLSTATKDTYDALHMQALPPR
notes: The sheet names the CD70-knockout T cells that carry CD70-CAR-5H; also called CD70-CAR-5H
B2: CD70KO-CAR-L2 (receptor)
chimeric antigen receptor chain: EVQLVESGGGLVQAGGSLRLSCAASGFTVDDYVIGWFRQAPGKEHEGVSCISSNDGSTWYADSVKGRFTISSDNAKNTMYLQMNSLKPEDTAVYYCAAKYAPYGLEYWEGGMDYWGKGTLVTVSSTTTPAPRPPTPAPTIASQPLSLRPEACRPAAGGAVHTRGLDFACDIYIWAPLAGTCGVLLLSLVITLYCKRGRKKLLYIFKQPFMRPVQTTQEEDGCSCRFPEEEEGGCELRVKFSRSADAPAYKQGQNQLYNELNLGRREEYDVLDKRRGRDPEMGGKPRRKNPQEGLYNELQKDKMAEAYSEIGMKGERRRGKGHDGLYQGLSTATKDTYDALHMQALPPR
notes: The sheet names the CD70-knockout T cells that carry CD70-CAR-L2; also called CD70-CAR-L2
B3: CD70KO-CAR-1E (receptor)
chimeric antigen receptor chain: EVQVVESGGGLVQAGGSLRLSCAASGFAFDDYAIGWFRQAPGKEQERVSCMSSSDGSTYYADSVKGRFTISSDNAKNTVYLQMNSLKPEDTAVYYCAAGVNYYREDGCPGALDYWGQGTQVTVSSTTTPAPRPPTPAPTIASQPLSLRPEACRPAAGGAVHTRGLDFACDIYIWAPLAGTCGVLLLSLVITLYCKRGRKKLLYIFKQPFMRPVQTTQEEDGCSCRFPEEEEGGCELRVKFSRSADAPAYKQGQNQLYNELNLGRREEYDVLDKRRGRDPEMGGKPRRKNPQEGLYNELQKDKMAEAYSEIGMKGERRRGKGHDGLYQGLSTATKDTYDALHMQALPPR
notes: The sheet names the CD70-knockout T cells that carry CD70-CAR-1E; also called CD70-CAR-1E
B4: CD70KO-CAR-1G (receptor)
chimeric antigen receptor chain: QLQLVESGGGLVQLGGSLTLSCTASGIIFNSDYVGWYRQAPGSDRELVALTSNMRTNYADSVEGRFTISRDNAKNTVYLQMNSLKPEDTAVYYCNVNRMTSYGPRDYWGQGTQVTVSSTTTPAPRPPTPAPTIASQPLSLRPEACRPAAGGAVHTRGLDFACDIYIWAPLAGTCGVLLLSLVITLYCKRGRKKLLYIFKQPFMRPVQTTQEEDGCSCRFPEEEEGGCELRVKFSRSADAPAYKQGQNQLYNELNLGRREEYDVLDKRRGRDPEMGGKPRRKNPQEGLYNELQKDKMAEAYSEIGMKGERRRGKGHDGLYQGLSTATKDTYDALHMQALPPR
notes: The sheet names the CD70-knockout T cells that carry CD70-CAR-1G; also called CD70-CAR-1G
B5: CD70KO-CAR-5A (receptor)
chimeric antigen receptor chain: EVQLVESGGGLVQAGGSLRLSCAASESIFNNYVMAWYRQPPGKQREAVAQISTDGSAYYQDRVKGRFTISRDNAKNLVNLQMSSLKPEDTAVYYCTAGLQYWGQGTQVTVSSTTTPAPRPPTPAPTIASQPLSLRPEACRPAAGGAVHTRGLDFACDIYIWAPLAGTCGVLLLSLVITLYCKRGRKKLLYIFKQPFMRPVQTTQEEDGCSCRFPEEEEGGCELRVKFSRSADAPAYKQGQNQLYNELNLGRREEYDVLDKRRGRDPEMGGKPRRKNPQEGLYNELQKDKMAEAYSEIGMKGERRRGKGHDGLYQGLSTATKDTYDALHMQALPPR
notes: The sheet names the CD70-knockout T cells that carry CD70-CAR-5A; also called CD70-CAR-5A
B6: CD70KO-CAR-7D (receptor)
chimeric antigen receptor chain: EVQLVESGGGLVQAGGSLRLSCAASGFTFDDYAIGWFRQAPGKEQEGVSCIRRSDGSTWYANSVKGRFTISNDNAKNTVYLQMNSLKPEDTAVYYCAVDRYGQSWHEGRGALDAWGQGTLVTVSSTTTPAPRPPTPAPTIASQPLSLRPEACRPAAGGAVHTRGLDFACDIYIWAPLAGTCGVLLLSLVITLYCKRGRKKLLYIFKQPFMRPVQTTQEEDGCSCRFPEEEEGGCELRVKFSRSADAPAYKQGQNQLYNELNLGRREEYDVLDKRRGRDPEMGGKPRRKNPQEGLYNELQKDKMAEAYSEIGMKGERRRGKGHDGLYQGLSTATKDTYDALHMQALPPR
notes: The sheet names the CD70-knockout T cells that carry CD70-CAR-7D; also called CD70-CAR-7D
B7: CD70KO-CAR-3H (receptor)
chimeric antigen receptor chain: QLQLVESGGGLVQPGGSLRLSCAASGNILRFNAVGWYRQAPGKQRDLVAAMAGARTNYADSVEGRFTISGNNANNTVYLQMNSLKPEDTGVYYCGADRVYGPPYEYGGRGTQVTVLSTTTPAPRPPTPAPTIASQPLSLRPEACRPAAGGAVHTRGLDFACDIYIWAPLAGTCGVLLLSLVITLYCKRGRKKLLYIFKQPFMRPVQTTQEEDGCSCRFPEEEEGGCELRVKFSRSADAPAYKQGQNQLYNELNLGRREEYDVLDKRRGRDPEMGGKPRRKNPQEGLYNELQKDKMAEAYSEIGMKGERRRGKGHDGLYQGLSTATKDTYDALHMQALPPR
notes: The sheet names the CD70-knockout T cells that carry CD70-CAR-3H; also called CD70-CAR-3H
B8: CD70KO-CAR-L1 (receptor)
chimeric antigen receptor chain: EVQVVESGGGLVQAGGSLRLSCAASGRTFSSYAMGWVRQAPGKDQEFVAAINWSDGSTYYADSVKGRFTIARDNAKNTAFLQMNSLKPEDTAVYYCAAGCCGVADAPLNALDAWGQGTLVTVSSTTTPAPRPPTPAPTIASQPLSLRPEACRPAAGGAVHTRGLDFACDIYIWAPLAGTCGVLLLSLVITLYCKRGRKKLLYIFKQPFMRPVQTTQEEDGCSCRFPEEEEGGCELRVKFSRSADAPAYKQGQNQLYNELNLGRREEYDVLDKRRGRDPEMGGKPRRKNPQEGLYNELQKDKMAEAYSEIGMKGERRRGKGHDGLYQGLSTATKDTYDALHMQALPPR
notes: The sheet names the CD70-knockout T cells that carry CD70-CAR-L1; also called CD70-CAR-L1
B9: CD70KO-CAR-5B (receptor)
chimeric antigen receptor chain: QVQLVESGGGLVQAGGSLRLSCAASGFTFDDYAIGWFRQAPGKEPEGVSCFRSSDGNIYYSDSVRGRFTISSDNAKNTVYLQMNRLKPEDTAVYYCAAYSVLLRPWVLCEGSYDYWGQGTQVTVSSTTTPAPRPPTPAPTIASQPLSLRPEACRPAAGGAVHTRGLDFACDIYIWAPLAGTCGVLLLSLVITLYCKRGRKKLLYIFKQPFMRPVQTTQEEDGCSCRFPEEEEGGCELRVKFSRSADAPAYKQGQNQLYNELNLGRREEYDVLDKRRGRDPEMGGKPRRKNPQEGLYNELQKDKMAEAYSEIGMKGERRRGKGHDGLYQGLSTATKDTYDALHMQALPPR
notes: The sheet names the CD70-knockout T cells that carry CD70-CAR-5B; also called CD70-CAR-5B

Target: T1, recombinant human CD70 protein …
Assay: flow cytometry: CAR on CD70-knockout T cells stained with biotinylated human CD70 protein (100 µg/ml) and PE-Streptavidin
Procedure: The expression of the CAR targeting CD70 prepared in example 5 in T cells in each group was detected by fluorescence antibody staining and flow cytometry. The specific steps were as follows: CAR-T cells targeting CD70 with lentivirus infection for 48 h, T cells without lentivirus infection and T-KO cells without lentivirus infection were respectively collected by centrifugation; biotinylated human CD70 protein (100 μg/ml) (Acrobiosystems: CDL-H82Q9) was added; and the mixture was incubated at 4° C. in the dark for 30 min, and then washed once with PBS after the incubation. After resuspending in an appropriate volume of PBS, a second antibody PE-Streptavidin (BD Biosciences: 554061) was added to the cells, and the mixture was incubated at 4° C. in the dark for 20 min, washed once with PBS and then resuspended in an appropriate volume of PBS. Finally, the expression efficiency of the CAR targeting CD70 on the surface of the T cells in which CD70 was knocked out was detected using a flow cytometer.

Row | Binder | POS (% of cells in the CD70-PE positive gate)
1 | B1 | 58.9%
2 | B2 | 62.6%
3 | B3 | 63.9%
4 | B4 | 57.5%
5 | B5 | 74.9%
6 | B6 | 78.4%
7 | B7 | 70.8%
8 | B8 | 82.5%
9 | B9 | 57.8%
